Usually Km stands for the concentration of substrate that gives half-maximal velocity. What is called kcat is the maximal rate divided by the concentration of active sites.

Series [1] addresses T1, Br2DNiR (Bradyrhizobium sp. ORS 375, UniProt H0SLX7).
T1 construct: gene nirK; two-domain enzyme, recombinant in E. coli with 6xHis tag cleaved by TEV; Cu-loaded T1 and T2 sites; CuNiR homotrimer, site at interface of two monomers
T1 sequence (H0SLX7 25-364): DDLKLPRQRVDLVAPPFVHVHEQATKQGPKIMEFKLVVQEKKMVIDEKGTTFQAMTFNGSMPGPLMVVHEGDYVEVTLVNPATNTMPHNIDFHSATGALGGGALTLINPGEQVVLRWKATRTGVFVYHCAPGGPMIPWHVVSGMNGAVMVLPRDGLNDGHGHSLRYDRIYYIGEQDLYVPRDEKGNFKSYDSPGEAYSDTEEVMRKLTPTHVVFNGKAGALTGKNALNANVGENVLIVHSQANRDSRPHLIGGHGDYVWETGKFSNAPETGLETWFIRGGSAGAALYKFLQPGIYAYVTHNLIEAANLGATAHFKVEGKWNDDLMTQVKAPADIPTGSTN
The series is described as follows: X-ray crystal structure (MSOX, nitrite-soaked crystal, DS1 […] Å). Format: binding. Particulars: 200 mM NaNO2 soak, pH 5.5, 100 K; side-on at type-2 Cu, full occupancy.

The test system of series [2] is O=NO. The series is described as follows: purified protein. Particulars: conditions in supplement only.

`O=NO` [nitrite]: in series [1], the “X-ray crystal structure (MSOX, nitrite-soaked crystal, DS1 1.19 Å)” value was “full occupancy nitrite is seen bound to fully occupied T2Cu in a “side-on” orientation”.
For the compound Br2DNiR (Bradyrhizobium sp. ORS 375), in series [2], the Km was determined as 7.4 ± 1.2 µM and the catalytic constant (kcat) was 9 ± 0.5 s⁻¹.

For the origin of these results see article PMC9335323, “Single crystal spectroscopy and multiple structures from one crystal (MSOX) define catalysis in copper nitrite reductases” (Proceedings of the National Academy of Sciences of the …, 2022).
